Measurements reported in the Human Domainome abundance scans (Beltran et al. 2025).
± gives the uncertainty stated by the source.

B1: Homeobox protein cut-like 1, residues 941 to 1008; numbered along this chain, P39880 (parent)
chain: QEVDTIELTRQVKEKLAKNGICQRIFGEKVLGLSQGSVSDMLSRPKPWSKLTQKGREPFIRMQLWLNG

Variants of: B1
Assay: abundance fitness (aPCA) (normalised: wild type 0, dead -1); higher = more abundant; growth selection in yeast, the domain comes from the species named
Settings: Homo sapiens

Going from QEVDTIELTRQVKEKLAKNGICQRIFGEKVLGLSQGSVSIMLSRPKPWSKLTQKGREPFIRMQLWLNG [D40I] to QEVDTIELTRQVKEKLAKNGICQRIFGEKVLGLSQDSVSDMLSRPKPWSKLTQKGREPFIRMQLWLNG [G36D], the abundance fitness rises from -0.349 ± 0.096 to 0.028 ± 0.099.

Going from QEVDTIELTRQVKEKLAKNGICQRIFGEKVLGLSQGSVSDMLSRPKPWSKLNQKGREPFIRMQLWLNG [T52N] to QEVDTIELTRQVKEKLAKNGICQRIFGEKVLGLSQGSVSDMLSRPKPMSKLTQKGREPFIRMQLWLNG [W48M], the abundance fitness falls from -0.009 ± 0.095 to -0.65 ± 0.072.

QEVDTIELTRQVKEKLAKNGICQRIFGEKVLGLSQGSVSDMLSRPKPDSKLTQKGREPFIRMQLWLNG [W48D] and QEVDTIELTRQVKEKLAKNGICQRIFGEKVLGLSQGSVSDMLSRPKPPSKLTQKGREPFIRMQLWLNG [W48P] are within error of each other in abundance fitness: -1.08 ± 0.2 for the first, -0.999 ± 0.13 for the second.

QEVDTIELTRQVKEKLAKNGICQRIFGEKVLGLSQGSVQDMLSRPKPWSKLTQKGREPFIRMQLWLNG [S39Q] and QEVDTIELTRQVKEKLAKNGICQRIFGEKVLGLSQGSVSDMLSRPKPWSKLTQKGREPFIRMYLWLNG [Q63Y] are within error of each other in abundance fitness: -0.007 ± 0.07 for the first, -0.069 ± 0.087 for the second.

QEVDTIELTRQVKEKLAKNGICQRIFGEKVLGLSQGSVSDMLSRPKPWSKLTQKGREPFIRMALWLNG [Q63A] and QEVDTIELTRQVKEKLAKNGICQRIFGEKVLGLSQGSVSDMLSRPKPWSKLTQKGREPFIRMQLWLNL [G68L] are within error of each other in abundance fitness: -0.268 ± 0.051 for the first, -0.343 ± 0.12 for the second.

QEVDTIELTRQVKEKLAKNKICQRIFGEKVLGLSQGSVSDMLSRPKPWSKLTQKGREPFIRMQLWLNG [G20K] and QEVDTIELTRQVKEKLAKNQICQRIFGEKVLGLSQGSVSDMLSRPKPWSKLTQKGREPFIRMQLWLNG [G20Q] are within error of each other in abundance fitness: 0.046 ± 0.091 for the first, 0.067 ± 0.081 for the second.

Compared with QEVDTIELTRQVKEKLAKNGICQRIFGEKVLILSQGSVSDMLSRPKPWSKLTQKGREPFIRMQLWLNG [G32I], QEVDTIELTRQVKEKLAANGICQRIFGEKVLGLSQGSVSDMLSRPKPWSKLTQKGREPFIRMQLWLNG [K18A] is higher in abundance fitness: -0.584 ± 0.096 for the first, -0.083 ± 0.053 for the second.

QEVDTIELTRQVKEKLASNGICQRIFGEKVLGLSQGSVSDMLSRPKPWSKLTQKGREPFIRMQLWLNG [K18S] and QETDTIELTRQVKEKLAKNGICQRIFGEKVLGLSQGSVSDMLSRPKPWSKLTQKGREPFIRMQLWLNG [V3T] are within error of each other in abundance fitness: -0.102 ± 0.057 for the first, -0.112 ± 0.085 for the second.

QEMDTIELTRQVKEKLAKNGICQRIFGEKVLGLSQGSVSDMLSRPKPWSKLTQKGREPFIRMQLWLNG [V3M] and QEVDTIELTRQVKEKLAKQGICQRIFGEKVLGLSQGSVSDMLSRPKPWSKLTQKGREPFIRMQLWLNG [N19Q] are within error of each other in abundance fitness: -0.045 ± 0.074 for the first, 0.042 ± 0.061 for the second.

Going from QEVDTIELTRQVKEKLAKLGICQRIFGEKVLGLSQGSVSDMLSRPKPWSKLTQKGREPFIRMQLWLNG [N19L] to QEVDTIELTRQVKEKLAKNGICQRIFGEKVLGLSQGSLSDMLSRPKPWSKLTQKGREPFIRMQLWLNG [V38L], the abundance fitness falls from 0.125 ± 0.052 to -0.026 ± 0.057.

Compared with QEVDTIELTRQVKEKLAKNGICQRIFGEKVLGLSQGSKSDMLSRPKPWSKLTQKGREPFIRMQLWLNG [V38K], QEVDTIELTRKVKEKLAKNGICQRIFGEKVLGLSQGSVSDMLSRPKPWSKLTQKGREPFIRMQLWLNG [Q11K] is higher in abundance fitness: -0.161 ± 0.083 for the first, 0.132 ± 0.077 for the second.

QEVDTIELTRVVKEKLAKNGICQRIFGEKVLGLSQGSVSDMLSRPKPWSKLTQKGREPFIRMQLWLNG [Q11V] and QEVDTIELTRQVKEKLAKNGICQRIFGEKVLGLSQGPVSDMLSRPKPWSKLTQKGREPFIRMQLWLNG [S37P] are within error of each other in abundance fitness: -0.274 ± 0.057 for the first, -0.189 ± 0.073 for the second.

Going from QEVDTIELTRQVKEKLAKNGICQRIIGEKVLGLSQGSVSDMLSRPKPWSKLTQKGREPFIRMQLWLNG [F26I] to QEVDTIELTRQVKEKLAKNGICQRINGEKVLGLSQGSVSDMLSRPKPWSKLTQKGREPFIRMQLWLNG [F26N], the abundance fitness falls from -0.45 ± 0.11 to -0.991 ± 0.19.

First: QEVDTIELTRQMKEKLAKNGICQRIFGEKVLGLSQGSVSDMLSRPKPWSKLTQKGREPFIRMQLWLNG [V12M]
Second: QEVDTIELTRQFKEKLAKNGICQRIFGEKVLGLSQGSVSDMLSRPKPWSKLTQKGREPFIRMQLWLNG [V12F]
The abundance fitness of the first is higher: -0.084 ± 0.095 for the first, -0.289 ± 0.077 for the second.

QEVDTIELTRQVKEKLAKNGICQRIFGEKVLGLVQGSVSDMLSRPKPWSKLTQKGREPFIRMQLWLNG [S34V] and QEVDTIELTRQVKEKLAKNGICQRIFGEKVLGLWQGSVSDMLSRPKPWSKLTQKGREPFIRMQLWLNG [S34W] are within error of each other in abundance fitness: -0.137 ± 0.059 for the first, -0.059 ± 0.07 for the second.

QEVDTIELTRQVKVKLAKNGICQRIFGEKVLGLSQGSVSDMLSRPKPWSKLTQKGREPFIRMQLWLNG [E14V] and QEVDTIELTRQVKEKLAKNGICQRIFGEKVLGLSQGSVSDMLSRPKPWSKLTQKGREPFQRMQLWLNG [I60Q] are within error of each other in abundance fitness: -0.214 ± 0.067 for the first, -0.142 ± 0.084 for the second.

QEVDTIELTRQVKEKLAKNGICQRIFGEKVLGLSQGSVSDMQSRPKPWSKLTQKGREPFIRMQLWLNG [L42Q] and QEVDTIELTRQVKEKLAKNGICQRIFGEKVLGLSQGSVSDMVSRPKPWSKLTQKGREPFIRMQLWLNG [L42V] are within error of each other in abundance fitness: -0.376 ± 0.088 for the first, -0.264 ± 0.046 for the second.

Going from YEVDTIELTRQVKEKLAKNGICQRIFGEKVLGLSQGSVSDMLSRPKPWSKLTQKGREPFIRMQLWLNG [Q1Y] to REVDTIELTRQVKEKLAKNGICQRIFGEKVLGLSQGSVSDMLSRPKPWSKLTQKGREPFIRMQLWLNG [Q1R], the abundance fitness rises from -0.34 ± 0.13 to -0.046 ± 0.052.

QEVDTIILTRQVKEKLAKNGICQRIFGEKVLGLSQGSVSDMLSRPKPWSKLTQKGREPFIRMQLWLNG [E7I] and QEVDTIELTRQVKEKLAKNGICQRIFGEKVLGLSQGSVSDMLSRPKPWSKLTQKGRGPFIRMQLWLNG [E57G] are within error of each other in abundance fitness: -0.565 ± 0.37 for the first, -0.126 ± 0.087 for the second.

Variant QEVDTIELTRQVKEKLAKNGICQRIFGEKVLGLSQGSVSDMLSRPKPWSKLTQKGRQPFIRMQLWLNG [E57Q] has an abundance fitness of -0.147 ± 0.082.
